Residue numbers refer to the chain shown, from its start.

Our source for the activity values is US20260218147, “CAS ENDONUCLEASE AND GUIDE RNA VARIANTS WITH IMPROVED EFFICIENCY” (PIONEER HI-BRED INTERNATIONAL, INC., published 2026).

Series [1] deals with T1, Cas-alpha 10 variant T34E+M45S+G81E+G470D (SEQ ID NO:362) (synthetic construct, UniProt P0DW62 SEQ:1-497, D54F).
T1 sequence: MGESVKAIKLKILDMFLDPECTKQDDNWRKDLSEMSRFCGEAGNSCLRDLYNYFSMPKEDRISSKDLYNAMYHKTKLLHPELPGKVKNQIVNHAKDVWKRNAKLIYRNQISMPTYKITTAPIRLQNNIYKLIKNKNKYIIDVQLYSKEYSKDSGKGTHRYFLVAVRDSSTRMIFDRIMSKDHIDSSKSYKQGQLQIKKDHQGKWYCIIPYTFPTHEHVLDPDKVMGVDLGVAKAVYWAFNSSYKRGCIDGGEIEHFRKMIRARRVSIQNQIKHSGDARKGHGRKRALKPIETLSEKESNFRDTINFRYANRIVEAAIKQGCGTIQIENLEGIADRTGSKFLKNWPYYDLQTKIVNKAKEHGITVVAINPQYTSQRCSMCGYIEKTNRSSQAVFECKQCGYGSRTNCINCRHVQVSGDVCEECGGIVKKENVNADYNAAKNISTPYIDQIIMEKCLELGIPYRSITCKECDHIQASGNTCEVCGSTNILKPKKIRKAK
The series can be described thus: cell_activity; PAM GTTC; HEK293T 37 C. The settings on record: tags: SV40 NLS, T2A-GFP; chain copies: 2. Here is the method: (§1) Human cell transformation was carried-out by culturing HEK293T cells (ATCC catalog umber CRL-3216) in Dulbecco's Modified Eagle Medium (DMEM) supplemented with 10% fetal bovine serum (FBS) and penicillin (100 U/ml)/streptomycin (100 μg/ml) at 37° C. in 5% CO₂. Cells were then seeded in 96-well plates at a 1.8×10^4 cells/well density. After approximately one day growth, cells were transfected with plasmids encoding nuclease and U6-guide RNA expression cassettes using FuGENE HD (Promega) per manufacturer's instruction. Briefly, on the day of transfection, 0.450 μg of plasmid DNA ([…] of Cas-alpha nuclease and 0.099 μg of sgRNA expression cassettes) was diluted in a final volume of 20 μl of room temperature Opti-MEM (Gibco), mixed, and 1.35 μl of FuGENE HD was added directly to the solution (not allowing undiluted transfection reagent to contact the sides or bottom of the tube or plate) to achieve a 3:1 ratio of transfection reagent to plasmid DNA. The resulting mixture was then incubated for 10 mins at room temperature, 20 μl added to each HEK293T seeded well, and mixed gently by pipetting or by using a shaker. Transfected cells were then grown at 37° C. with 5% CO₂ for 4 days and GFP expression monitored by fluorescence microscope. Experiments were performed with three to twelve independent replicates and transfections where Cas-alpha 10 endonuclease and/or sgRNA plasmid DNA expression cassettes were omitted served as negative controls.
(§2) For human cells, cells were washed twice with PBS two to four days after transfection and lysed using lysis buffer (50 mM Tris, 150 mM NaCl, 0.2% Tween 20, 0.2 mg/ml Proteinase K). Next, RUNX and WTAP targets were evaluated for the presence of targeted mutations using T7 endonuclease I (Guschin, D. Y. et al. (2010) In: Mackay J., Segal D. (eds) Engineered Zinc Finger Proteins. Methods in Molecular Biology (Methods and Protocols), vol 649. Humana Press, Totowa, NJ) and Illumina deep sequencing as described above.

The target in series [2] is T2, Cas-alpha 10 base variant (synthetic construct, UniProt P0DW62 SEQ:1-497).
T2 chain: T1 sequence with E34T, S45M, E81G, D470G
The series is described as follows: cell_activity; PAM GTTC; HEK293T 37 C. To be noted: tags: SV40 NLS; chain copies: 2. The protocol:
as §1, §2

For series [3], the target named is T3, Cas-alpha 10 wild type (Cas12f) (Syntrophomonas palmitatica, UniProt P0DW62 SEQ:1-497).
T3 sequence: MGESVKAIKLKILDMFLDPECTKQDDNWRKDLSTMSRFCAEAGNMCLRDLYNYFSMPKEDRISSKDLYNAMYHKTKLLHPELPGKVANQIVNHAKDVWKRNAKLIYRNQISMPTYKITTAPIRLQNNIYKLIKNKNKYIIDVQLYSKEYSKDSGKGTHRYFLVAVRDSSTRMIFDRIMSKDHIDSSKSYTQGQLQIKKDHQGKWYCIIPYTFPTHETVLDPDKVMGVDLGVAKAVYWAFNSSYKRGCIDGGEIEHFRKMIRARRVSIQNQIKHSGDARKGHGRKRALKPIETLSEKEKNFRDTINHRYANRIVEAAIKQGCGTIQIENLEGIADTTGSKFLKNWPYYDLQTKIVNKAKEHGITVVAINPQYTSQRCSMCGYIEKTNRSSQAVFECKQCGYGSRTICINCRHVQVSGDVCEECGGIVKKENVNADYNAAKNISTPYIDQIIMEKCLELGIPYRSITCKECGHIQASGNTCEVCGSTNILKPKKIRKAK
The series can be described thus: cell_activity; PAM GTTC; HEK293T 37 C. The settings on record: tags: SV40 NLS; chain copies: 2. The protocol:
as §1, §2

For series [4], the target named is T4, Cas-alpha 10 variant G81E (synthetic construct, UniProt P0DW62 SEQ:1-497).
T4 chain: T3 sequence
The series can be described thus: cell_activity; PAM GTTC; maize, 3x4 hr 45 C. The settings on record: tags: SV40 NLS; chain copies: 2. The protocol:
The resulting T-DNA was then placed into LBA4404, a thymine auxotrophic strain of Agrobacterium tumefaciens, containing Vir9, a separate plasmid encoding the Bo542 virulence genes (US20170121722A1 and WO 2017/078836). The resulting Agrobacterium strain was then used to transform nine-to-ten-day old immature maize embryos (approximately 2 mm in size) by submersion in 700A liquid media containing the strain at an optical density (OD) of 0.4 to 2.0 at 550 nm for 5 min. and then removed from the media and placed on solid co-cultivation medium overnight at 21° C. in the dark. Following T-DNA delivery, embryos are transferred to resting media, 13266R, and grown in the dark at 28° C. for 5-7 days. Next, coleoptiles were removed, and embryos transferred to selection media for 11-16 days and kept in the dark at 28° C. They were then moved to maturation media and incubated for 14-25 days in the dark at 28° C. and then subject to light for 2-5 days. Next, they were moved to rooting media and incubated at 26-28° C. under light for 14-28 days refreshing media as needed. To examine Cas-alpha nuclease-guide RNA activity, transformed tissue was incubated at 28° C., standard for Agrobacterium transformation, or at a range of temperatures lower or higher than 28° C.
In a third study, the efficiency of targeted mutagenesis of Cas-alpha 10 endonuclease variants, SEQ ID NOs:14, 48, 60, and 157, were compared when tested with two sgRNA recognition domains, SEQ ID NOs:61 and 327, at two target sites, MS26 and D8. Experiments were carried-out in Zea mays using Agrobacterium (Agro) transformation as described in Example 2. Two temperature regimens were performed. The first subjected Agro transformed embryos (once per day) to 45° C. for 4 hrs on days 3, 4, and 5 (3×4 hr 45° C.) after infection and the second to a continuous incubation at 37° C. on days 1-3 (1-3d 37° C.) following infection. For both regimens, embryos were placed at 28° C. before and after temperature treatment. […]

B1: sgRNA RUNX Design 5_157-159 ; RUNX target (ssRNA ; dsDNA)
RNA: GUUUCGCGCGCCAGGGCAGUUAGGUGCCCUAAAAGAGCGAAGUGGCCGAAAGGAAAGGCUAACGCUUCUCUAACGCUACGGCGACCUUGGCGAAAUGCCAUCAAUACCACGCGGCCCGAAAGGGUUCGCGCGAAACGAACGCAUCUUGCGUAAGCGCGUGGAUUGAAACCCUGUCUUGUUUGUGAGAGG
DNA 1: GTTCCCTGTCTTGTTTGTGAGAGG
DNA 2: CCTCTCACAAACAAGACAGGGAAC
On to B1, for which the activity was found to be 24.2 % targeted mutagenesis in series [1] and 19.6 % targeted mutagenesis in series [2].

B2: sgRNA RUNX (original) ; RUNX target (ssRNA ; dsDNA)
RNA: AUUUACUCUGUUUCGCGCGCCAGGGCAGUUAGGUGCCCUAAAAGAGCGAAGUGGCCGAAAGGAAAGGCUAACGCUUCUCUAACGCUACGGCGACCUUGGCGAAAUGCCAUCAAUACCACGCGGCCCGAAAGGGUUCGCGCGAAACUGAGUAAUGAAAGUCGCAUCUUGCGUAAGCGCGUGGAUUGAAACCCUGUCUUGUUUGUGAGAGG
DNA 1: GTTCCCTGTCTTGTTTGTGAGAGG
DNA 2: CCTCTCACAAACAAGACAGGGAAC
As to B2, the activity is 8.77 % targeted mutagenesis in series [2] and 5.68 % targeted mutagenesis in series [3].

B3: sgRNA MS26 (original) ; MS26 target (ssRNA ; dsDNA)
RNA: AUUUACUCUGUUUCGCGCGCCAGGGCAGUUAGGUGCCCUAAAAGAGCGAAGUGGCCGAAAGGAAAGGCUAACGCUUCUCUAACGCUACGGCGACCUUGGCGAAAUGCCAUCAAUACCACGCGGCCCGAAAGGGUUCGCGCGAAACUGAGUAAUGAAAGUCGCAUCUUGCGUAAGCGCGUGGAUUGAAACAAGUUCACGGCGUUCCAGGC
DNA 1: GTTCAAGTTCACGGCGTTCCAGGC
DNA 2: GCCTGGAACGCCGTGAACTTGAAC
Regarding B3, in series [4], the activity was 6.62 % targeted mutagenesis.
